Laboratory results reported in publication PMC6768103, “Functional and structural characterization of HspB1/Hsp27 from Chinese hamster ovary cells” (FEBS Open Bio, 2019).

Experiments:
[1] = molecular target: the molecule itself; experiment: SEC; mixture of CgHspB1WT (30 µM) and IPMDH incubated at 25 and 55 °C for 30 min and analysed at the same temperature; the 55 °C mixture also cooled and analysed at 25 °C
[2] = molecular target: the molecule itself; experiment: SEC-MALS; TSKgel G3000XL column, buffer B (50 mM Tris/HCl pH 7.5, 0.1 mM EDTA, 150 mM NaCl), room temperature
[3] = molecular target: the molecule itself; experiment: SEC; SB-804HQ column on HPLC, buffer B with 20% ethylene glycol, 6 or 12 µM as monomer, heated 30 min at the specified temperature and run at the same temperature
[4] = molecular target: T1, porcine heart citrate synthase (pig, UniProt P00889 28-464); experiment: SEC; mixture of CgHspB1WT (30 µM) and CS incubated at 55 °C for 30 min, cooled to 25 °C and analysed at 25 °C; details: both partners purified
T1 construct: citrate synthase from porcine heart; Client protein; the complex with CgHspB1 appeared only after heating at 55 °C (heat-denatured CS); also called CS
T1 sequence (looked up): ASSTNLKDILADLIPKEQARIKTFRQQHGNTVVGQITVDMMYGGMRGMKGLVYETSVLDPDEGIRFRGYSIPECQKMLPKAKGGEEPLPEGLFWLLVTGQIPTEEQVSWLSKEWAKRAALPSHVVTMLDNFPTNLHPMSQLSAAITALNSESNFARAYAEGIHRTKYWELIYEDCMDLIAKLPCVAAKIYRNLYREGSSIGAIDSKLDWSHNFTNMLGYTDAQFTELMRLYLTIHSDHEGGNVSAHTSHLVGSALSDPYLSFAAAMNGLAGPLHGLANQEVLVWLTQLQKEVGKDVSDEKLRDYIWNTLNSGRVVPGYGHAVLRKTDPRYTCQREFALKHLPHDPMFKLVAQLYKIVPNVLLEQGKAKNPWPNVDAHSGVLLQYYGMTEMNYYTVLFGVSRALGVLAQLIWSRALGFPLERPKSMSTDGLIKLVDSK

B1: isopropyl malate dehydrogenase from Thermus thermophilus HB8 (enzyme, UniProt Q5SIY4 1-345, looked up)
chain: MKVAVLPGDGIGPEVTEAALKVLRALDEAEGLGLAYEVFPFGGAAIDAFGEPFPEPTRKGVEEAEAVLLGSVGGPKWDGLPRKIRPETGLLSLRKSQDLFANLRPAKVFPGLERLSPLKEEIARGVDVLIVRELTGGIYFGEPRGMSEAEAWNTERYSKPEVERVARVAFEAARKRRKHVVSVDKANVLEVGEFWRKTVEEVGRGYPDVALEHQYVDAMAMHLVRSPARFDVVVTGNIFGDILSDLASVLPGSLGLLPSASLGRGTPVFEPVHGSAPDIAGKGIANPTAAILSAAMMLEHAFGLVELARKVEDAVAKALLETPPPDLGGSAGTEAFTATVLRHLA
notes: isopropyl malate dehydrogenase (3-isopropylmalate dehydrogenase) from Thermus thermophilus HB8; also called IPMDH
B1 was tested. Which “stoichiometry N” value [1] did it give?
The value was 2.

B2: wild‐type CgHspB1 (HspB1/Hsp27 from Chinese hamster ovary cells) (natural protein, Chinese hamster (Cricetulus griseus), UniProt A0A8C2QII0 1-213, looked up)
chain: MTERRVPFSLLRSPSWEPFRDWYPAHSRLFDQAFGVPRLPDEWSQWFSAAGWPGYVRPLPAATAEGPAAVALAAPLAAPAFHRALNRQLSSGVSEIRQTADRWRVSLDVNHFAPEELTVKTKEGVVEITGKHEERQDEHGYISRCFTRKYTLPPGVDPTLVSSSLSPEGTLTVEAPLPKTATQSAEITIPVTFEARAQIGGQEAGKSEQSGAK
notes: HspB1/Hsp27 of Chinese hamster (Cricetulus griseus), full-length gene amplified from total cDNA of CHO cells; deduced subunit mass 23.4 kDa; 16-mer at room temperature by SEC-MALS; the oligomer varies with temperature and concentration; also called CgHspB1WT; HspB1 from CHO cells; source: E. coli BL21 Star (DE3) / BL21 (DE3), pET23b, purified (DEAE, RESOURCE Q, Superdex 200); copies: 16
Which results are given for B2?
stoichiometry N [2]: 16; stoichiometry N [3]: ~2; binding result [4]: binds

B3: CgHspB1 with S15D mutation (natural protein, Chinese hamster (Cricetulus griseus), UniProt A0A8C2QII0 1-213, looked up)
chain: MTERRVPFSLLRSPDWEPFRDWYPAHSRLFDQAFGVPRLPDEWSQWFSAAGWPGYVRPLPAATAEGPAAVALAAPLAAPAFHRALNRQLSSGVSEIRQTADRWRVSLDVNHFAPEELTVKTKEGVVEITGKHEERQDEHGYISRCFTRKYTLPPGVDPTLVSSSLSPEGTLTVEAPLPKTATQSAEITIPVTFEARAQIGGQEAGKSEQSGAK
notes: HspB1/Hsp27 of Chinese hamster (Cricetulus griseus), full-length gene from CHO cell cDNA, with S15D; Made by site-directed mutagenesis on pET23b-CgHspB1WT; also called CgHspB1S15D; CgHspBS15D; source: E. coli BL21 (DE3), pET23b, purified (DEAE, RESOURCE Q, Superdex 200)
Which “stoichiometry N” value [3] does the source give for B3 here?
Its value is ~2.
